Data reported in a protein production outcome set (Wang et al. 2014).

Assay: label from the status in PepcDB records
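Note: failed if final PepcDB status was selected cloned or expressed and not failed if soluble or beyond.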

Row | Sequence | protein production
1 | MASPATFQFSRTKLNLQINLVERKSPSKLSFPLLFRDQAKSTPIRFPVIRASSSSSASNHKPSLLKTTFISLTAAAALFSASFYFVNKRAAMTPVAVVETTLEKHLETQSNDVNALSLLTEIKFKSDKHEQAIVFLDRLIEIEPYERKWPAMKARILSYHGKSESAIEAFEEILEKDPIRVDAYHYLVMEYYNSKPKLTEIEKRINKVIRRCKKEKKTKEILGFRMLIAQIRFIEGKSVEAIRICEELVKEDPNDFTIYLFQGVVYTLMNKGEEAAKQFEHVARVIPRNHPSRETAARTTNSNEWRVIVAYDNVYCYLSTFARLSMASLFNKFG | failed
2 | MKPRDINKLIASKIFGYEIKDDNIIKDGRYRLGIPLYSQNIESAWQVVEKLEYDVKVTKTDLKPKYQVHVFVPGGVKMVFAETAPMAICKGALASVDIELQD | not failed
3 | MTWLFCDRIATKIDKNNGISMITHNFNTLDLLTSPVWIVSPFEEQLIYANSAARLLMQDLTFSQLRTGPYSVSSQKELPKYLSDLQNQHDIIEILTVQRKEEETALSCRLVLRKLTEAEPVIIFEGIEAPATLGLKASRSANYQRKKQGFYARFFLTNSAPMLLIDPSRDGQIVDANLAALNFYGYNHETMCQKHTWEINMLGRRVMPIMHEISHLPGGHKPLNFVHKLADGSTRHVQTYAGPIEIYGDKLMLCIVHDITEQKRLEEQLEHAAHHDAMTGLLNRRQFYHITEPGQMQHLAIAQDYSLLLIDTDRFKHINDLYGHSKGDEVLCALARTLESCARKGDLVFRWGGEEFVLLLPRTPLDTALSLAETIRVSVAKVSISSLPRFTVSIGVAHHEGNESIDELFKRVDDALYRAKNDGRNRVLAA | failed
4 | MQGKKFISPGAWFSMNYPSDWNEFEDGEGSFLFYNPDVWTGNFRISAFKGNASYGKDAIRQELKENDSASLVKIGTWDCAYSKEMFQEEGTYYTSHLWITGTGNIAFECSFTVPKGGSAKEAEEVIATLEARKEGEKYPAELIPVRLSEIYQINEGYEWVVSTVKQELKKDFQGVEEDLEKIQQVIDSGKISPKKKDEWLAIGITVCAILTNEVEGMEWKTLIDGNREVPVLEYQGRTIDPMKIAWSKVKAGQPCNIAEAYQSAIDHH | not failed
5 | MSFFLTTPAAIDLGVNIDHVATLRNARGTAYPDPVRAALAAEDAGADAITLHLREDRRHIVDADVRTLRPRVKTRMNLECAVTPEMLDIACEIRPHDACLVPEKRSELTTEGGLDVVGHFDAVRAACKQLADAGVRVSLFIDPDEAQIRAAHETGAPVIELHTGRYADAHDAAEQQREFERIATGVDAGIALGLKVNAGHGLHYTNVQAIAALPGIAELNIGHAIVAHAVFVGWDNAVREMKAIMVAARVAALHGGR | not failed
6 | DTVANASGPLMVEIVKTPGSALGISLTTTSLRNKSVITIDRIKPASVVDRSGALHPGDHILSIDGTSMEHCSLLEATKLLASISEKVRLEILPVPQSQRPLRPS | not failed
7 | MEKVLTDLDRVNIAKQEYELGSQLDTLVKIMSQDKVLPIGKVAHVQDGGKETGEQIYTITPNGTLDKPEDVKEVTVLFKGSTAPFGGDDWKTDWFKNDIPIASKLLLKKFGSQSVSHKQGTKQLEQSAHLLKEVMNKYPNAKISVYGHSLGSMNAQYAIAELDDNQIYRVQGAWIYNGPNLYSILTDKQKEQVDKIKGVVNNYVDSKDKIGIGYPKEGSDNAVGIVKIVDSKAVSGGSWVANFTNQHIWGGYQYNPDGSLKLAEDKFAYKENYSVVHTNVNQRMHAIKAKLSSFKSTGKEVSKNQAIFLDSQQAKVISSGLVTISKEAVEEVKKVEQKAVAKAEELYQSLKVAPTGVTELSPQELEEAYAQSGVSYASIVGEAQTFFSNKTQAAESISHAYVELENQINKGVEAMLRQDSNLSGEFKQWH | failed
8 | VSDPLHVTFVCTGNICRSPMAEKMFAQQLRHRGLGDAVRVTSAGTGNWHVGSCADERAAGVLRAHGYPTDHRAAQVGTEHLAADLLVALDRNHARLLRQLGVEAARVRMLRSFDPRSGTHALDVEDPYYGDHSDFEEVFAVIESALPGLHDWVDERLARNGPS | not failed
9 | MATRTQARGAVVELLYAFESGNEEIKKIASSMLEEKKIKNNQLAFALSLFNGVLEKINEIDALIEPHLKDWDFKRLGSMEKAILRLGAYEIGFTPTQNPIIINECIELGKLYAEPNTPKFLNAILDSLSKKLTQKPLN | failed
10 | MQNRWAETKFDSDIDEVVYGSRLIGSDPDLVLHGGGNTSVKTTERDHAGRIISVLRVKNSGSNLGTIDSRGFTGIRMDDALAAAKIDKMTDEAMVDYLKKSMVNPSEPSPSVETFLHAFLPYKFVMHSHADAILSITNTDLPSDQIAKILGNVVVLPYIPPGFTLAKEVMNCFKKGIDGIVLRKHGLLTFGDTGKEAYDRHINIVSRAENFIREKTDGK | not failed
11 | MKDGEAATGQAASRPKRADARRNEKNLLDAAAAVFVRSGVEAPVRDIAAEAGVGTATIYRHFPTRADLIIGVYRHQVEACAEAGPALLASSPTPYAALAGWIDLFVDFLVTKHGLAAVLQSDSAGFETLHAYFLDRLVPVCTDLLAAATDSGEIDTDVPPLALMRGVGNLCIGAETPNPSYDARQLVRILIAGLRAAD | not failed
12 | MSRISVVIPAYNEASDLPQTIQGIRDLSLECEVIVVDDGSVDDTKKIAERLADITVALPVNQGKGQALMEGWKRAEGTHIVMLDADLGSTSSEMAHLLPPLLTNEADLVIGMLPTHSSKKGFGLVKKRAQQYIAKRTGAFLTAPLSGQRAFHRRWLPSLLEENVQGFGVETQMLLHFLLRGAVVKEIPTLMAHRYTGKTISGFIHRFQQWIDIERALRGSNTLEHHHHHH | not failed
13 | MSSRWEGIDEFVAVAESGQFTAAAERLGVSSSHISRQIARLEDRLQTRLLYRSTRRVTLSEAGQTFLQHCQRLQDGREEALRAMGDLASEPKGLLRMTCAVAYGERFIVPLVTRFMALYPQLRVDVELSNHTLDLLHEGMDLAIRLGRLADSRLVATRLAPRRMYLCVSPAYLERYGRPHSLSELARHNCLVGSSDLWALQQDGREISQRVQGNWRCNSGQAVLDAALQGIGLCQLPDYYVLEHLNSGALVSLLEAHQPPNTAVWALYPQQRHLSPKVRRLVDYLKEGLAGLPEYRFG | failed
14 | MSKVIYKISIDLGGIVKRNFEKETKNCGKVNEEVLFKILKSNDKSEIGIKFKFKDIKSIRQFKDSVPITEYKDYEKYINRMADGEGNVLMSEKVEYFGHTSGTTGKQKLVPCTKNSRRRASKYMALLVNRFCYDNFKENWNYARGMMIADIVMTTYTKGKIPICSATSGGMKGIKHLLPYLYTSPIEVMEIKDKETALYLHLLFGLEEEELLYISGVFISNILDLFRTLEKNNKALVRDIQKGSISEELNIDEGLRKVLNKKLKPNNKRAMELEKEFKKGFKGIAKRIWPNLLYIASVTGANFSIYNDKVYYYIDSIPIYSAAYGSTEAMIGINPYASKVLYVITPSAVFYEFIPIGEKGEESFDTLLLSELKLGGRYEVVITNYAGLYRYKIGDVVKVVGFYNKCPEIEFLYRKNQVLNMAAEKTNEEHLTYAIKNTIKKLNLDLVDYTTEPDNSITPGRYIFYFEFRNNMYGFSTEKLQNILDDELRVSNLAYNRARNNKKLGMLKVEVLAPNTFDLIKEALFNKGISKNQIKIPRVIINNKIVMDIINRNKIKFVKKSVI | failed
15 | MSQANANFLDNSKVSANKTAESGQLKEFRTPPHNLAIEQAVLAALMTVAESFEQVNDLLKENDFYATRHKYIFRAIEKLAQENSPYDAVLVNDWLLKQNLLDAIGGEEYLMQLMADSPSSFYNLETYASKIKEFSTLRSMIKVSSDILQNAYDTKGRPVSEILDLAETSIFSLAEQHNNNKKDAGPKSISSVTADVISKLDELSKLDGNITGLTTGFLELDNKTYGMQSGDMIIVAARPSMGKTTFAMNLVESVLFNCNLPALVFSMEMPADSIAMRLISSYGKVHQGHLRSGKLDGDEWSKVTGTILQLQEKHLYIDDSSALPPTELRARARRIAKQHGGKLGCIMIDYLQLMKVPGMGDNRVGEIGEISRSLKALAKEMDCPVIALSQLNRSLENRPNKRPVMSDLRESGAIEQDADLIMFIYRDEVYNKESKEAGTAEIIIGKQRNGPIGTVRLAFEGQYTRFSNLSPEYYSQYDDEE | failed
16 | MSSPNPEDVPRRPEPEPSSSNKKKKKRKWLRQEASIQALTRAGHGALQAGQNHEALNNFQRAFLLASKAPQTRDTPVLQACAFNLGAAYVETGDPARGLELLLRAHPEEKAQGRRHGDQCFNVALAYHALGELPQALAWYHRALGHYQPQGDQGEAWAKMGACYQALGQPELAAHCLQEASQAYAQERQLRAAALALGAAAGCMLKSGRHRVGEVVQVLEKSRRLAERSTERRLLGHLYNDLGLGYSQLQLFPLAVEAFLQALPLCWVPGEQATVLRNLGMAHNALGNYQEAREFHQKAADLHGSVGQRWEQGRSFGSLAFALSQLGDHKAARDNYLHALQAARDSGDMKGQWQACEGLGAAAARLGQYDQALKYYKEALAQCQKEPDSVRERLVAKLADTVRTRLAQVGLVQTHTLTSAPGRLQAPGGASQAEGTPAKAGSSTAGVQHRSSSGWEDEEFEEGHQKKKEERSANVPVRAGPGRPELCFLPGTVNHSHHLASSCPTFTKHTPCRGTVLGKASIYSPGPRAHLPFVGPGPPRAEYPSILVPNGPQANRSSRWPRESLSRSRQRRPMESGICTIV | failed
17 | MPPQPDAAPPPLPPELAPLLPTDPVTIGPFRVIGRLGSGGMGAVYGALDAEHRCVAVKVIHAEHVRRPEYRELFAREAELVSRIDAECTPRFLGADPNAPEPWLATEFVPGRTLQQHVREFGPLDEAALRAFAAGTAEALAAIHAAGVVHLDVKPGNIMLAPDGPKVLDFGIARAIGDTTDKNVYGTPGWAAPERLDRQPGTPAADMFAWGGLIVFAATGRSPFGTGTSAELLERVRAGDCDLTGVPEELMELVARALSTDPEARPTAVEAFHTVLALDTVAADAIEEPGEDAAAIHRKRLRALLHRVWTGFDAAGHRPELWMALGTAAGGVGVAAGGAAALATQGTAGGGAAAGSGKLVGTASAAGGGASWGAGAGTLTKSATVTAAGTGLSGKAMLTVAAGATAAAVAGGWLVGRAVTDQPLLPFTDPEPSATAALAPSPEEDEKEGQEVRFRNLTLWFPEDWTVHVIEDIEFVGFGPDHEGREIVDDWIAAHPPGNPGCAEVDWNHWEWPAALVECPHIRILGPGGITYGGAVYEPITEEPDAGLFAPSQNPLPCIPGIDAYEADPASFPGQSPLVEELAPVGDRSALYREYLTPCGNPDGRDPELLYYTQRSWFLPESQILIVDEYGIEDIDAILADGEFASRSEED | failed
18 | TMLRVRSRDGLERVSVDGPHITVSQLKTLIQDQLQIPIHNQTLSTNRNLLLAKSPSDFLAFTDMADPNLRISSLNLAHGSMVYLAYEGERTIRG | not failed
19 | MLHGKGCKKDVKIIVWSGLLFLCLAARALATGVVGYLPMSDGEYAQKRALKPLLTLPYSVSPDQTWHFRQVGVSGVTLLPEPKKDNEWRISGKDRAGNSWVVPVGRLINLAGNAQFYRADLDRNGIQDLVIWLGNPGLGLAPSAQYIIFTFLKNGRPCVFEPWGFYTATDTGVDDLLDLQGNGRTQLLDMQFDSGYWITNLYQVKDARWQRVHGWFGRLSYPALTRFNHYPGRKLIIKPIAGRNPQTDDLSLTQRCLIRGNVLPGVNQD | failed
20 | MERHEEIKKGAWIGILGNTVLAVLKILVGLLTGSYAILADGIDTSTDIFTSLVILLSSRISGKPPDETHPYGHERAETIASKIISFVMFYAGASLLVESVKRLVKQEFSLELTLTAFIVVGISVAGKTFLFLYKLSLGKRLKSSATISDALNMRNDIMISGTVLAGMVAMKTFGWWWLDSLLAIFVSIMILRTSFSVFYEAAYELMDGMKRTELDMYDDIFAVLERFPNVHNPHRVRIRRVGTKYFIEMDIEVDGKMSVKDAHELTVKIRKEMLKRRDDIEDVTIHVEPLGNVEEEGFGLKKGEKK | failed
